The nature of the data set: protein stability index of a GFP-peptide fusion (GPS, HEK-293T) (PSI 1-6); higher = more stable. The note with it: c terminus: a fixed tail appended.

± gives the standard deviation.
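Also: 24-mer peptide tiles fused after GFP, lentivirally expressed, FACS-sorted into six equal bins by GFP/DsRed ratio, decoded by Illumina sequencing, PSI is the read-weighted mean bin number.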

Take KLDTKYPYVCHAELNAIMNKNSTD [DCTD]: the protein stability index is 3.52 ± 0.18 (treatment: DMSO) and 3.42 ± 0.11 (treatment: MLN4924 1 uM, 8 h).

For KLNLCEDGPCHKRRASICCTQLGS [SCARA5], the protein stability index by setting is: (treatment: DMSO) 3.12 ± 0.2; (treatment: MLN4924 1 uM, 8 h) 3.3 ± 0.27.

Consider KLPATMPEPVYFHCAAVTPAGCMY [KLHDC10], for which the protein stability index reads like this: (treatment: DMSO) 2.27 ± 0.23; (treatment: MLN4924 1 uM, 8 h) 2.08 ± 0.19.

As for KNGQGFALVYSITAQSTFNDLQDL [RAP1B], the protein stability index stood at 2.23 ± 0.42 (treatment: DMSO) and 2.17 ± 0.45 (treatment: MLN4924 1 uM, 8 h).

Turning to KNNLSFIETSALDSTNVEEAFKNI [RAB11B], the protein stability index runs as follows: (treatment: DMSO) 4.33 ± 0.2; (treatment: MLN4924 1 uM, 8 h) 4.33 ± 0.3.

Consider KPKKKKEKKEKEKKKKDKEKEKEK [BRD3], for which the protein stability index stood at 5.26 ± 0.097 (treatment: DMSO) and 5.19 ± 0.14 (treatment: MLN4924 1 uM, 8 h).

In turn, KQNARFLTSMRRLSSIKRDTNSIA [STX11] displayed a protein stability index (treatment: DMSO) of 3.12 ± 0.25 and a protein stability index (treatment: MLN4924 1 uM, 8 h) of 3.21 ± 0.2.

For KQNKTPLDKSTTGVSEILLKTQMK [FEM1B], the protein stability index by setting is: (treatment: DMSO) 4.36 ± 0.15; (treatment: MLN4924 1 uM, 8 h) 4.2 ± 0.2.

In the case of KQYKAVVYSNTIQSIIAIIRAMGR [GNAI1], the protein stability index worked out at 1.95 ± 0.32 (treatment: DMSO) and 2.21 ± 0.052 (treatment: MLN4924 1 uM, 8 h).

Take KREREKEDIALNKHRSRRKWCFWN [RHOBTB1]: the protein stability index amounted to 2.65 ± 0.29 (treatment: DMSO) and 3.07 ± 0.51 (treatment: MLN4924 1 uM, 8 h).

Consider KRKRVDVEESEASSSVSISHSASA [LMNB1], for which the protein stability index turned out to be 5.29 ± 0.29 (treatment: DMSO) and 5.42 ± 0.17 (treatment: MLN4924 1 uM, 8 h).

For KRSWTSAQNACSEHGATLAVIDSE [CD69], the protein stability index came out at 4.64 ± 0.076 (treatment: DMSO) and 4.67 ± 0.17 (treatment: MLN4924 1 uM, 8 h).

Turning to KSHFQNSREWSGKEKWWDGQRDRK [PBXIP1], the protein stability index turned out to be 3.67 ± 0.26 (treatment: DMSO) and 3.98 ± 0.31 (treatment: MLN4924 1 uM, 8 h).

KTIEDLRNKIIAATIENAQPILQI [KRT16]: the protein stability index came to 2.36 ± 0.25 (treatment: DMSO) and 2.33 ± 0.1 (treatment: MLN4924 1 uM, 8 h).

In the case of KTLRVWDLKDDGNMMKVLRGHQNW [WSB1], the protein stability index is, setting by setting: (treatment: DMSO) 2.66 ± 0.4; (treatment: MLN4924 1 uM, 8 h) 2.4 ± 0.42.

KTPLHQKHAAFVTPDQKYSMDNTP [MYBL2]: the protein stability index (treatment: DMSO) amounted to 4.14 ± 0.38 and the protein stability index (treatment: MLN4924 1 uM, 8 h) came to 4.23 ± 0.2.

Regarding KVEEEIVTLRQVLAAKERHCGELK [TPD52L2], the protein stability index runs as follows: (treatment: DMSO) 3.95 ± 0.3; (treatment: MLN4924 1 uM, 8 h) 4.21 ± 0.14.

For KVKRSLRQARKKGRHLELANQKLS [CCDC3], the protein stability index (treatment: DMSO) worked out at 4 ± 0.26 and the protein stability index (treatment: MLN4924 1 uM, 8 h) was 4.39 ± 0.45.

On to KVPESLVRSLRGEEPVPRERDRDP [LURAP1L], for which the protein stability index is, setting by setting: (treatment: DMSO) 5.28 ± 0.13; (treatment: MLN4924 1 uM, 8 h) 5.25 ± 0.33.

As for KVTGYLISYSSMLGAVAGLALGPI [MFSD9], the protein stability index by setting is: (treatment: DMSO) 3.31 ± 0.48; (treatment: MLN4924 1 uM, 8 h) 2.96 ± 0.28.

Consider KVVSRAENLSVPVIGALLRFNQAI [LPCAT4], for which the protein stability index was found to be 2.15 ± 0.54 (treatment: DMSO) and 2.18 ± 0.19 (treatment: MLN4924 1 uM, 8 h).

Take LAIQARKRRPKREKHPKKPEPQQK [SRPK2]: the protein stability index is 4.32 ± 0.2 (treatment: DMSO) and 4.59 ± 0.25 (treatment: MLN4924 1 uM, 8 h).

With LALKTPPRVLTLSERPLDFLDLER [MFF], the protein stability index reads like this: (treatment: DMSO) 2.96 ± 0.45; (treatment: MLN4924 1 uM, 8 h) 3.1 ± 0.21.

As for LALPPGAEHWTKEHCGAVCFVKDN [WAS], the protein stability index is 3.35 ± 0.23 (treatment: DMSO) and 3.45 ± 0.59 (treatment: MLN4924 1 uM, 8 h).

Regarding LARVPKLDLKRQYDRVAQLDQLLH [CHGB], the protein stability index reads like this: (treatment: DMSO) 2.15 ± 0.063; (treatment: MLN4924 1 uM, 8 h) 2.48 ± 0.26.

LASLGASEEAVQKLATCYFFTVEF [TPH1] had a protein stability index (treatment: DMSO) of 2.98 ± 0.52 and a protein stability index (treatment: MLN4924 1 uM, 8 h) of 2.73 ± 0.66.

LASYLEKVRQLERDNAELENLIRE [KRT33B]: the protein stability index by setting is: (treatment: DMSO) 3.31 ± 0.5; (treatment: MLN4924 1 uM, 8 h) 3.34 ± 0.36.

Take LATASYDTRVYIWDPHNGDILMEF [WSB1]: the protein stability index by setting is: (treatment: DMSO) 2.85 ± 0.12; (treatment: MLN4924 1 uM, 8 h) 2.86 ± 0.26.

Sequence LCRKCANDIFQAANPYWTSRGSSV [TRIM63] registered a protein stability index (treatment: DMSO) of 2.32 ± 0.36 and a protein stability index (treatment: MLN4924 1 uM, 8 h) of 2.58 ± 0.49.

LDMEKRRCRQSLEDSESLRIKEVE [LRRC45]: the protein stability index runs as follows: (treatment: DMSO) 4.79 ± 0.2; (treatment: MLN4924 1 uM, 8 h) 4.67 ± 0.1.

In the case of LDRDALKQSLVVAVQDHGQPPLSA [PCDHGA10], the protein stability index came to 4.49 ± 0.19 (treatment: DMSO) and 4.678 ± 0.044 (treatment: MLN4924 1 uM, 8 h).

Take LDSCNSLTPKSTPVKTLPFSPSQF [MYBL2]: the protein stability index came to 3.34 ± 0.2 (treatment: DMSO) and 3.37 ± 0.42 (treatment: MLN4924 1 uM, 8 h).

For LDVERWLKPAMTQAQDEVEQERRL [FCHSD1], the protein stability index by setting is: (treatment: DMSO) 4.98 ± 0.16; (treatment: MLN4924 1 uM, 8 h) 5.11 ± 0.19.

Take LDVRARLECEINTYRSLLESEDCK [KRT33B]: the protein stability index turned out to be 4.23 ± 0.16 (treatment: DMSO) and 4.38 ± 0.25 (treatment: MLN4924 1 uM, 8 h).

Take LEDLESELDDPGQPVSLRRRKREV [ZNF24]: the protein stability index runs as follows: (treatment: DMSO) 5.38 ± 0.09; (treatment: MLN4924 1 uM, 8 h) 5.49 ± 0.16.

For the sequence LEDLKDQIAQLEASLAAAKKQLAD [LMNB1], the protein stability index is, setting by setting: (treatment: DMSO) 5.3 ± 0.12; (treatment: MLN4924 1 uM, 8 h) 5.21 ± 0.15.

(Values after the supplement of paper PMC10567573.)
